According to patent US20200087373A1 (UNIVERSITY OF COPENHAGEN, published 2020):
Ends that are not written are not given here. * marks the point of attachment. C16 diacid = O=C(O)CCCCCCCCCCCCCCC(=O)*; C12 diacid = O=C(O)CCCCCCCCCCC(=O)*; Stearoyl = CCCCCCCCCCCCCCCCCC(=O)*; Palmitoyl = CCCCCCCCCCCCCCCC(=O)*; Lauroyl = CCCCCCCCCCCC(=O)*

T1: human GIP receptor (human, UniProt P48546 22-466)
T1 sequence (looked up): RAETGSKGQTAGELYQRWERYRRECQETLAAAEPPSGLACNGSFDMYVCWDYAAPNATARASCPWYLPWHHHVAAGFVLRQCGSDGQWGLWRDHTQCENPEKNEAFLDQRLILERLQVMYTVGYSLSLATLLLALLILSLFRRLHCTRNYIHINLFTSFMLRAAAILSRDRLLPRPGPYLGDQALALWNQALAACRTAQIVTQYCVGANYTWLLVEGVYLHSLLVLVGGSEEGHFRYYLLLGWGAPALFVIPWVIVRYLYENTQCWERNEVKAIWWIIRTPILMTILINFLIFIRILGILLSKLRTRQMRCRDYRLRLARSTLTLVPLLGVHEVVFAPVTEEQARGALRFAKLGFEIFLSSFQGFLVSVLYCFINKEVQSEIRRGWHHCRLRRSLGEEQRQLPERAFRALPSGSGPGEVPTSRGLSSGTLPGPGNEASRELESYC


Target: T1, human GIP receptor
Test: cell-based or functional assay

| Binder | cAMP agonism, EC50 (log) [log M] | cAMP agonism, Emax [%] | cAMP agonism, nM (EC50) [nM] | cAMP antagonism, log (IC50) [log M] | cAMP antagonism, nM (IC50) [nM] |
| --- | --- | --- | --- | --- | --- |
| EGTFISDYSIAMDKIK(C16 diacid)QQDFVNWLLAQK-NH2 (N-terminus assumed; SMILES CC[C@H](C)[C@H](NC(=O)[C@H](CO)NC(=O)[C@H](Cc1ccc(O)cc1)NC(=O)[C@H](CC(=O)O)NC(=O)[C@H](CO)NC(=O)[C@@H](NC(=O)[C@H](Cc1ccccc1)NC(=O)[C@@H](NC(=O)CNC(=O)[C@@H](N)CCC(=O)O)[C@@H](C)O)[C@@H](C)CC)C(=O)N[C@@H](C)C(=O)N[C@@H](CCSC)C(=O)N[C@@H](CC(=O)O)C(=O)N[C@@H](CCCCN)C(=O)N[C@H](C(=O)N[C@@H](CCCCNC(=O)CCCCCCCCCCCCCCC(=O)O)C(=O)N[C@@H](CCC(N)=O)C(=O)N[C@@H](CCC(N)=O)C(=O)N[C@@H](CC(=O)O)C(=O)N[C@@H](Cc1ccccc1)C(=O)N[C@H](C(=O)N[C@@H](CC(N)=O)C(=O)N[C@@H](Cc1c[nH]c2ccccc12)C(=O)N[C@@H](CC(C)C)C(=O)N[C@@H](CC(C)C)C(=O)N[C@@H](C)C(=O)N[C@@H](CCC(N)=O)C(=O)N[C@@H](CCCCN)C(N)=O)C(C)C)[C@@H](C)CC) [AT158 [hGIP(3-30)NH2[H18K]-C16diacid/18]] | -8.5 | 6 | 3.1 | -8.3 | 5 |
| EGTFISDYSIAMDK(Palmitoyl)IKQQDFVNWLLAQK-NH2 (N-terminus assumed; SMILES CCCCCCCCCCCCCCCC(=O)NCCCC[C@H](NC(=O)[C@H](CC(=O)O)NC(=O)[C@H](CCSC)NC(=O)[C@H](C)NC(=O)[C@@H](NC(=O)[C@H](CO)NC(=O)[C@H](Cc1ccc(O)cc1)NC(=O)[C@H](CC(=O)O)NC(=O)[C@H](CO)NC(=O)[C@@H](NC(=O)[C@H](Cc1ccccc1)NC(=O)[C@@H](NC(=O)CNC(=O)[C@@H](N)CCC(=O)O)[C@@H](C)O)[C@@H](C)CC)[C@@H](C)CC)C(=O)N[C@H](C(=O)N[C@@H](CCCCN)C(=O)N[C@@H](CCC(N)=O)C(=O)N[C@@H](CCC(N)=O)C(=O)N[C@@H](CC(=O)O)C(=O)N[C@@H](Cc1ccccc1)C(=O)N[C@H](C(=O)N[C@@H](CC(N)=O)C(=O)N[C@@H](Cc1c[nH]c2ccccc12)C(=O)N[C@@H](CC(C)C)C(=O)N[C@@H](CC(C)C)C(=O)N[C@@H](C)C(=O)N[C@@H](CCC(N)=O)C(=O)N[C@@H](CCCCN)C(N)=O)C(C)C)[C@@H](C)CC) [AT163 [hGIP(3-30)NH2[H18K]-C16/16]] |  | 0 |  | -6.7 | 212 |
| EGTFISDYSIAMDK(Lauroyl)IRQQDFVNWLLAQR-NH2 (N-terminus assumed; SMILES CCCCCCCCCCCC(=O)NCCCC[C@H](NC(=O)[C@H](CC(=O)O)NC(=O)[C@H](CCSC)NC(=O)[C@H](C)NC(=O)[C@@H](NC(=O)[C@H](CO)NC(=O)[C@H](Cc1ccc(O)cc1)NC(=O)[C@H](CC(=O)O)NC(=O)[C@H](CO)NC(=O)[C@@H](NC(=O)[C@H](Cc1ccccc1)NC(=O)[C@@H](NC(=O)CNC(=O)[C@@H](N)CCC(=O)O)[C@@H](C)O)[C@@H](C)CC)[C@@H](C)CC)C(=O)N[C@H](C(=O)N[C@@H](CCCNC(=N)N)C(=O)N[C@@H](CCC(N)=O)C(=O)N[C@@H](CCC(N)=O)C(=O)N[C@@H](CC(=O)O)C(=O)N[C@@H](Cc1ccccc1)C(=O)N[C@H](C(=O)N[C@@H](CC(N)=O)C(=O)N[C@@H](Cc1c[nH]c2ccccc12)C(=O)N[C@@H](CC(C)C)C(=O)N[C@@H](CC(C)C)C(=O)N[C@@H](C)C(=O)N[C@@H](CCC(N)=O)C(=O)N[C@@H](CCCNC(=N)N)C(N)=O)C(C)C)[C@@H](C)CC) [AT153 [hGIP(3-30)NH2[H18R; K30R]-C12/16]] |  | 0 |  | -6.7 | 187 |
| {C12 diacid}-EGTFISDYSIAMDKIRQQDFVNWLLAQR-NH2 (SMILES CC[C@H](C)[C@H](NC(=O)[C@H](CO)NC(=O)[C@H](Cc1ccc(O)cc1)NC(=O)[C@H](CC(=O)O)NC(=O)[C@H](CO)NC(=O)[C@@H](NC(=O)[C@H](Cc1ccccc1)NC(=O)[C@@H](NC(=O)CNC(=O)[C@H](CCC(=O)O)NC(=O)CCCCCCCCCCC(=O)O)[C@@H](C)O)[C@@H](C)CC)C(=O)N[C@@H](C)C(=O)N[C@@H](CCSC)C(=O)N[C@@H](CC(=O)O)C(=O)N[C@@H](CCCCN)C(=O)N[C@H](C(=O)N[C@@H](CCCNC(=N)N)C(=O)N[C@@H](CCC(N)=O)C(=O)N[C@@H](CCC(N)=O)C(=O)N[C@@H](CC(=O)O)C(=O)N[C@@H](Cc1ccccc1)C(=O)N[C@H](C(=O)N[C@@H](CC(N)=O)C(=O)N[C@@H](Cc1c[nH]c2ccccc12)C(=O)N[C@@H](CC(C)C)C(=O)N[C@@H](CC(C)C)C(=O)N[C@@H](C)C(=O)N[C@@H](CCC(N)=O)C(=O)N[C@@H](CCCNC(=N)N)C(N)=O)C(C)C)[C@@H](C)CC) [AT149 [hGIP(3-30)NH2[H18R; K30R]-C12diacid/3]] |  | 50 |  |  |  |
| K(C16 diacid)GTFISDYSIAMDKIHQQDFVNWLLAQK-NH2 (N-terminus assumed; SMILES CC[C@H](C)[C@H](NC(=O)[C@H](CO)NC(=O)[C@H](Cc1ccc(O)cc1)NC(=O)[C@H](CC(=O)O)NC(=O)[C@H](CO)NC(=O)[C@@H](NC(=O)[C@H](Cc1ccccc1)NC(=O)[C@@H](NC(=O)CNC(=O)[C@@H](N)CCCCNC(=O)CCCCCCCCCCCCCCC(=O)O)[C@@H](C)O)[C@@H](C)CC)C(=O)N[C@@H](C)C(=O)N[C@@H](CCSC)C(=O)N[C@@H](CC(=O)O)C(=O)N[C@@H](CCCCN)C(=O)N[C@H](C(=O)N[C@@H](Cc1c[nH]cn1)C(=O)N[C@@H](CCC(N)=O)C(=O)N[C@@H](CCC(N)=O)C(=O)N[C@@H](CC(=O)O)C(=O)N[C@@H](Cc1ccccc1)C(=O)N[C@H](C(=O)N[C@@H](CC(N)=O)C(=O)N[C@@H](Cc1c[nH]c2ccccc12)C(=O)N[C@@H](CC(C)C)C(=O)N[C@@H](CC(C)C)C(=O)N[C@@H](C)C(=O)N[C@@H](CCC(N)=O)C(=O)N[C@@H](CCCCN)C(N)=O)C(C)C)[C@@H](C)CC) [AT294 [hGIP(3-30)NH2[E3K]-C16diacid/3]] | -8.7 | 74 | 1.8 | -8.6 | 2.5 |
| EGTFISDYSIAMDRIK(C16 diacid)QQDFVNWLLAQR-NH2 (N-terminus assumed; SMILES CC[C@H](C)[C@H](NC(=O)[C@H](CO)NC(=O)[C@H](Cc1ccc(O)cc1)NC(=O)[C@H](CC(=O)O)NC(=O)[C@H](CO)NC(=O)[C@@H](NC(=O)[C@H](Cc1ccccc1)NC(=O)[C@@H](NC(=O)CNC(=O)[C@@H](N)CCC(=O)O)[C@@H](C)O)[C@@H](C)CC)C(=O)N[C@@H](C)C(=O)N[C@@H](CCSC)C(=O)N[C@@H](CC(=O)O)C(=O)N[C@@H](CCCNC(=N)N)C(=O)N[C@H](C(=O)N[C@@H](CCCCNC(=O)CCCCCCCCCCCCCCC(=O)O)C(=O)N[C@@H](CCC(N)=O)C(=O)N[C@@H](CCC(N)=O)C(=O)N[C@@H](CC(=O)O)C(=O)N[C@@H](Cc1ccccc1)C(=O)N[C@H](C(=O)N[C@@H](CC(N)=O)C(=O)N[C@@H](Cc1c[nH]c2ccccc12)C(=O)N[C@@H](CC(C)C)C(=O)N[C@@H](CC(C)C)C(=O)N[C@@H](C)C(=O)N[C@@H](CCC(N)=O)C(=O)N[C@@H](CCCNC(=N)N)C(N)=O)C(C)C)[C@@H](C)CC) [AT159 [hGIP(3-30)NH2[K16R; H18K; K30R]-C16diacid/18]] | -8.7 | 6 | 2 | -8.2 | 6 |
| EGTFISDYSIAMDKIK(Stearoyl)QQDFVNWLLAQK-NH2 (N-terminus assumed; SMILES CCCCCCCCCCCCCCCCCC(=O)NCCCC[C@H](NC(=O)[C@@H](NC(=O)[C@H](CCCCN)NC(=O)[C@H](CC(=O)O)NC(=O)[C@H](CCSC)NC(=O)[C@H](C)NC(=O)[C@@H](NC(=O)[C@H](CO)NC(=O)[C@H](Cc1ccc(O)cc1)NC(=O)[C@H](CC(=O)O)NC(=O)[C@H](CO)NC(=O)[C@@H](NC(=O)[C@H](Cc1ccccc1)NC(=O)[C@@H](NC(=O)CNC(=O)[C@@H](N)CCC(=O)O)[C@@H](C)O)[C@@H](C)CC)[C@@H](C)CC)[C@@H](C)CC)C(=O)N[C@@H](CCC(N)=O)C(=O)N[C@@H](CCC(N)=O)C(=O)N[C@@H](CC(=O)O)C(=O)N[C@@H](Cc1ccccc1)C(=O)N[C@H](C(=O)N[C@@H](CC(N)=O)C(=O)N[C@@H](Cc1c[nH]c2ccccc12)C(=O)N[C@@H](CC(C)C)C(=O)N[C@@H](CC(C)C)C(=O)N[C@@H](C)C(=O)N[C@@H](CCC(N)=O)C(=O)N[C@@H](CCCCN)C(N)=O)C(C)C) [AT160 [hGIP(3-30)NH2[H18K]-C18/18]] | -6 | 13 | 962 | -7.4 | 38 |
| Lauroyl-EGTFISDYSIAMDKIHQQDFVNWLLAQK-NH2 [AT148 [hGIP(3-30)NH2-C12/3]] | -7.9 | 43 | 13 |  |  |
| EGTFISDYSIAMDK(Lauroyl)IHQQDFVNWLLAQK-NH2 [AT154 [hGIP(3-30)NH2-C12/16]] |  | 0 |  | -7.2 | 63 |
